Results taken from patent publication US20230241247.

What was measured:
[1] = target: rhesus IgG (total IgG in rhesus macaque plasma)
[2] = target: hamster IgG (IgG in pooled hamster plasma)
[3] = target: human IgG (total IgG in human serum / pooled human plasma)

B1: immunoglobulin G (IgG)-degrading enzyme from Streptococcus pyogenes (IdeS; Promega) (protein)
chain: DSFSANQEIRYSEVTPYHVTSVWTKGVTPPANFTQGEDVFHAPYVANQGWYDITKTFNGKDDLLCGAATAGNMLHWWFDQNKDQIKRYLEEHPEKQKINFNGEQMFDVKEAIDTKNHQLDSKLFEYFKEKAFPYLSTKHLGVFPDHVIDMFINGYRLSLTNHGPTPVKEGSKDPRGGIFDAVFTRGDQSKLLTSRHDFKEKNLKEISDLIKKELTEGKALGLSHTYANVRINHVINLWGADFDSNGNLKAIYVTDSDSNASIGMKKYFVGVNSAGKVAISAKEIKEDNIGAQVLGLFTLSTGQDSWNQTN
**Q.** Which results are given for B1?
**A.** cleavage of IgG in serum/plasma in vitro (non-reducing SDS-PAGE, Coomassie stain) [1]: IdeS is a highly efficient and specific protease of human IgG, rhesus IgG and hamster IgG; cleavage of IgG in serum/plasma in vitro (non-reducing SDS-PAGE, Coomassie stain) [2]: IdeS is a highly efficient and specific protease of human IgG, rhesus IgG and hamster IgG; cleavage of IgG in serum/plasma in vitro (non-reducing SDS-PAGE, Coomassie stain) [3]: IdeS is a highly efficient and specific protease of human IgG, rhesus IgG and hamster IgG
